The values below come from publication PMC11938149.

For this experiment, the target named is T1, Bacillus subtilis FtsZ^1-382 (for light scattering) (Bacillus subtilis) (UniProt P17865).
T1 sequence: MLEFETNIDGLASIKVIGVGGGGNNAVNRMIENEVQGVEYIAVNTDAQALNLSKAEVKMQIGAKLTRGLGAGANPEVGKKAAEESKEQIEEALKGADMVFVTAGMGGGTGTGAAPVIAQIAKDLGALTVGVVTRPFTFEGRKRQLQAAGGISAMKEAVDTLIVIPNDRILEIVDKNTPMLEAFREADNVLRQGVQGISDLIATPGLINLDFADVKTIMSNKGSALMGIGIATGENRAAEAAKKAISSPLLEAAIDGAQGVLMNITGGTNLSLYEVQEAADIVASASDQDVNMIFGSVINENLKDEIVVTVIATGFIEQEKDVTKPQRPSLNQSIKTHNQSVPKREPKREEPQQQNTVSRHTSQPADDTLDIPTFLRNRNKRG

B1: Bacillus subtilis MinC^1-224 wild type (for light scattering) (natural protein)
chain: MKTKKQQYVTIKGTKNGLTLHLDDACSFDELLDGLQNMLSIEQYTDGKGQKISVHVKLGNRFLYKEQEEQLTELIASKKDLFVHSIDSEVITKKEAQQIREEAEIISVSKIVRSGQVLQVKGDLLLIGDVNPGGTVRAGGNIFVLGSLKGIAHAGFNGNNQAVIAASEMLPTQLRINHVLNRSPDHIQKGNEMECAYLDTDGNMVIERLQHLAHLRPDLTRLEG
B1: the inhibition of FtsZ polymerization by light scattering (5 uM FtsZ, 15 uM MinC, HMK buffer pH 7.7, 100 mM potassium) was determined as 50%.
